Test results reported in paper PMC5190049, “Immunogenicity of mammary tumor cells can be induced by shikonin via direct binding-interference with hnRNPA1” (Oncotarget, 2016).

Columns and labels:
hnRNPA1 (UP1) = biological target: T1, hnRNPA1 (UP1) (Homo sapiens, UniProt P09651); assay: isothermal titration calorimetry; format: binding
T1 construct: UP1, first 196 amino acids (N-terminal fragment with both RRMs); pET-42a, GST-His tag cut by Factor Xa; E. coli BL21(DE3)

[1] = biological target: T2, hnRNPA1 N-terminal fragment (UP1) (human, UniProt P09651 1-196); assay: EMSA; without shikonin; shikonin 0-4 ug/test disrupts binding dose-dependently; EMSA: 20 mM HEPES, 50 mM KCl, 1 mM EDTA, 5 mM MgCl2, 0.1 mg/ml tRNA, 0.1 mg/ml BSA, 5 mM DTT, 10% glycerol, room temperature; ITC: 300 mM NaCl, 50 mM Tris-HCl; conditions: protein: recombinant; tags: GST-His fusion tag removed with Factor Xa; label: 5'-biotin
T2 sequence (P09651 1-196): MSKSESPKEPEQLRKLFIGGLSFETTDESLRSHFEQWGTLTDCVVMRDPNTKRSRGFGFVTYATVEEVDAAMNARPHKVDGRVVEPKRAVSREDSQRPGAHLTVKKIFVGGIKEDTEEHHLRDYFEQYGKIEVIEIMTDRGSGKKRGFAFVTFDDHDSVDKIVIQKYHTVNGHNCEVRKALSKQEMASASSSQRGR

[2] = biological target: T2, hnRNPA1 N-terminal fragment (UP1); assay: EMSA; without shikonin; shikonin 0-4 ug/test disrupts binding; EMSA: 20 mM HEPES, 50 mM KCl, 1 mM EDTA, 5 mM MgCl2, 0.1 mg/ml tRNA, 0.1 mg/ml BSA, 5 mM DTT, 10% glycerol, room temperature; ITC: 300 mM NaCl, 50 mM Tris-HCl; conditions: protein: recombinant; tags: GST-His fusion tag removed with Factor Xa; label: 5'-biotin
[3] = biological target: T2, hnRNPA1 N-terminal fragment (UP1); assay: EMSA; shikonin 0-4 ug/test; EMSA: 20 mM HEPES, 50 mM KCl, 1 mM EDTA, 5 mM MgCl2, 0.1 mg/ml tRNA, 0.1 mg/ml BSA, 5 mM DTT, 10% glycerol, room temperature; ITC: 300 mM NaCl, 50 mM Tris-HCl; conditions: protein: recombinant; tags: GST-His fusion tag removed with Factor Xa; label: 5'-biotin
[4] = biological target: T2, hnRNPA1 N-terminal fragment (UP1); assay: ITC; N = 1.17 +/- 0.128; pH 7.0; 3 uM UP1, 60 uM RNA; Kd not given in text; EMSA: 20 mM HEPES, 50 mM KCl, 1 mM EDTA, 5 mM MgCl2, 0.1 mg/ml tRNA, 0.1 mg/ml BSA, 5 mM DTT, 10% glycerol, room temperature; ITC: 300 mM NaCl, 50 mM Tris-HCl; conditions: protein: recombinant; tags: GST-His fusion tag removed with Factor Xa

T1 sequence (P09651 1-196): as above

With `CC(C)=CC[C@@H](O)C1=CC(=O)c2c(O)ccc(O)c2C1=O` [shikonin] the Kd (hnRNPA1 (UP1)) was 71.2 µM.

B1: TR2 (ssDNA)
DNA: TTAGGGTTAGCG
B1: binds [1].

B2: WT RNA (ssRNA)
RNA: AUUUAGGGAUUUAGGGAAUG
B2: binds [2].

B3: M3 RNA (called M2 in Figure 2c legend) (ssRNA)
RNA: AUUUCGGGAUUUCGGGAAUG
B3: no binding [3].

B4: WT RNA (ITC) (ssRNA)
RNA: AUUUAGGGAUUUAGGGAAUG
B4: binds [4].
